Oligonucleotides are written 5' to 3', each unit as a sugar letter and its base; * is a phosphorothioate linkage, no mark a phosphodiester; rarer units and linkages stand in square brackets, end groups in braces. Plain capitals give the bases only. m = 2'-O-methyl; r = 2'-OH (RNA)
T1: Asialoglycoprotein receptor (ASGP-R) (Homo sapiens, UniProt P07306)
T1 sequence (P07306 1-291): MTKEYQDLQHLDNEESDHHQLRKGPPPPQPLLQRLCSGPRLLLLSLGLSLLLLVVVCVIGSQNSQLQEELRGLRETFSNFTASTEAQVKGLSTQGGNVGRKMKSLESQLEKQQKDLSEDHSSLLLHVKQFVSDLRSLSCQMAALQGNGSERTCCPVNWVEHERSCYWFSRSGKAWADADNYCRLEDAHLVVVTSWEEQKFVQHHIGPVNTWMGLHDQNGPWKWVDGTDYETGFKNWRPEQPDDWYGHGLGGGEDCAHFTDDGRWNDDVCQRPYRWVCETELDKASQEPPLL
T1 sequence (P07307 1-311 partner): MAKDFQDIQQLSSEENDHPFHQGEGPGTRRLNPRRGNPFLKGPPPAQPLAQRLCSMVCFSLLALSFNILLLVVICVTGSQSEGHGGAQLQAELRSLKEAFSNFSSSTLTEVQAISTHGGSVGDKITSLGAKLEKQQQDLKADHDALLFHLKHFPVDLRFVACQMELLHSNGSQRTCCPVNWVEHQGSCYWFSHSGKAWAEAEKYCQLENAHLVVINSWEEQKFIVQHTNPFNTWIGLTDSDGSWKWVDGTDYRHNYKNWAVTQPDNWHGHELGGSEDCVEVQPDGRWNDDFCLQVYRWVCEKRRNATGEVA

B1: GA457: guide RNA, human TTR, protospacer GCCATCCTGCCAAGAATGAG (SEQ ID NO: 24), gRNA SEQ ID NO: 11 (nucleic acid)
guide: GCCATCCTGCCAAGAATGAGGTTTTAGAGCTAGAAATAGCAAGTTAAAATAAGGCTAGTCCGTTATCAACTTGAAAAAGTGGCACCGAGTCGGTGCTTTT
modifications: chemistry not given here
B2: GA521: modified guide RNA, human TTR, GA457 spacer with 2′-O-methyl modified tracr, SEQ ID NO: 11 (nucleic acid)
guide: B1 guide
modifications: chemistry not fully specified
B3: GA461: guide RNA, human/cyno TTR, protospacer TACTCACCTCTGCATGCTCA (SEQ ID NO: 27), gRNA SEQ ID NO: 15 (nucleic acid)
guide: TACTCACCTCTGCATGCTCAGTTTTAGAGCTAGAAATAGCAAGTTAAAATAAGGCTAGTCCGTTATCAACTTGAAAAAGTGGCACCGAGTCGGTGCTTTT
modifications: chemistry not given here
B4: GA459: guide RNA, human TTR, protospacer GCAACTTACCCAGAGGCAAA (SEQ ID NO: 25), gRNA SEQ ID NO: 13 (nucleic acid)
guide: GCAACTTACCCAGAGGCAAAGTTTTAGAGCTAGAAATAGCAAGTTAAAATAAGGCTAGTCCGTTATCAACTTGAAAAAGTGGCACCGAGTCGGTGCTTTT
modifications: chemistry not given here
B5: GA460: guide RNA, human/cyno TTR, protospacer TATAGGAAAACCAGTGAGTC (SEQ ID NO: 26), gRNA SEQ ID NO: 14 (nucleic acid)
guide: TATAGGAAAACCAGTGAGTCGTTTTAGAGCTAGAAATAGCAAGTTAAAATAAGGCTAGTCCGTTATCAACTTGAAAAAGTGGCACCGAGTCGGTGCTTTT
modifications: chemistry not given here
B6: GA458: guide RNA, cyno TTR, protospacer GCCATCCTGCCAAGAACGAG (SEQ ID NO: 28), gRNA SEQ ID NO: 29; cynomolgus equivalent of GA457 (nucleic acid)
guide: mG*mC*mC*rArUrCrCrUrGrCrCrArArGrArArCrGrArGrGrUrUrUrUrArGrArGrCrUrArGrArArArUrArGrCrArArGrUrUrArArArArUrArArGrGrCrUrArGrUrCrCrGrUrUrArUrCrArArCrUrUrGrArArArArArGrUrGrGrCrArCrCrGrArGrUrCrGrGrUrGrCrU*mU*mU*mU

How the values were obtained:
[1] = target: T1, Asialoglycoprotein receptor (ASGP-R); details: ligand: N-acetylgalactosamine (GalNAc); cited from earlier work
TTR on-target site = experiment: Off-target validation in human primary hepatocytes: on-target site editing; assay type: cell-based; details: for on-target site editing efficiency (in words): treated vs control groups, human primary hepatocytes
Description: (§2) Several candidate off-target sites were analyzed for off-target editing in human primary hepatocytes.

human TTR gene = experiment: Base editing in primary human hepatocytes co-transfected with gRNA and ABE8.8 mRNA, NGS; assay type: cell-based; details: for Human hepatocytes- Editing % 625, rep 1 / Human hepatocytes- Editing % 625, rep 2: 625 ng/RNA/mL; for Human hepatocytes- Editing % 625, rep 1 / Human hepatocytes- Editing % 1250, rep 1 / Human hepatocytes- Editing % 2500, rep 1: rep 1, 3 days after transfection; for Human hepatocytes- Editing % 625, rep 2 / Human hepatocytes- Editing % 1250, rep 2 / Human hepatocytes- Editing % 2500, rep 2: rep 2, 3 days after transfection; for Human hepatocytes- Editing % 1250, rep 1 / Human hepatocytes- Editing % 1250, rep 2: 1250 ng/RNA/mL; for Human hepatocytes- Editing % 2500, rep 1 / Human hepatocytes- Editing % 2500, rep 2: 2500 ng/RNA/mL; for editing activity in human primary hepatocytes (in words): ABE8.8 mRNA co-transfection
Text: With this example, gRNA sequences were identified that permit ABE8.8 (and other ABE variants containing Streptococcus pyogenes Cas9, such as ABE7.10, or another Cas protein that can use the NGG PAM) to either: 1) disrupt the start codon, or 2) disrupt splice sites, whether donors or acceptors, via A→G editing within its editing window (roughly positions 4 to 7 in the 20-nt protospacer region of DNA). Five sequences were identified throughout the human TTR gene (Table 1). gRNAs were synthesized matching each of the protospacer sequences and otherwise conforming to the standard 100-nt Streptococcus pyogenes CRISPR gRNA sequence, with each gRNA molecule having a minimal degree of chemical modifications (specified in Table 1).
(§1) The mRNA, and corresponding amino acid, sequence of the ABE8.8 (MA004) used in shown below in Table 11. Three days after transfection, genomic DNA was harvested from the hepatocytes, and assessed for base editing with next-generation sequencing of PCR amplicons generated around the target splice site. […] See FIGS. 5A-5C, FIG. 6, and Tables 2-3.

[2] = system: candidate off-target sites; experiment: Off-target validation in human primary hepatocytes: candidate off-target site editing; assay type: cell-based
Description: With a view towards establishing the safety of a base-editing therapy knocking down of TTR in the human liver in vivo, off-target mutagenesis analysis is assessed in primary human hepatocytes. […] The in vitro biochemical assay ONE-seq was used to generate a list of candidate off-target sites and to determine the propensity of a ribonucleoprotein comprising the ABE8.8 base editor protein and each of the three protospacer guides sequences (GA457, GA460, and GA461) to cleave oligonucleotides in a library.
For each site, the total number of edited reads was normalized to the total number of edited reads assigned to the on-target site, and this ratio defines the ONE-seq score for the site. Sites were ranked by ONE-seq score, and those with a score equal to or larger than 0.001, were selected for validation. A score equal to or larger than 0.001 encompasses sites that have down to 1000-fold less editing activity in the biochemical assay compared to editing of the on-target site. This threshold is based on the premise that in cells, if there is 100% on-target editing, 1/1000-fold less editing activity would translate to <0.1% off-target editing, which falls below the lower limit of detection of editing by NGS.
as §2

TTR gene = experiment: GA521 dose response base editing in primary human hepatocytes, NGS; assay type: cell-based; details: MessengerMax transfection, various doses total RNA (ng/ml), 3 days
Text: Exemplary guide RNA GA521 was transfected into primary human hepatocytes using MessengerMax transfection. GA521 disrupts the start codon AUG of the TTR gene by editing it to ACG with an A-to-G base editor (e.g., ABE8.8; ABE8.8-m).
Three days after transfection, genomic DNA was harvested from the hepatocytes, and assessed for base editing with next-generation sequencing of PCR amplicons generated around the target splice site.
FIG. 29 depicts dose response for human gRNA GA521 in primary human hepatocytes. Percent base editing at various doses (ng/ml) total RNA was determined from NGS analysis. GA521 was the guide RNA.

[3] = system: cynomolgus monkey TTR gene; experiment: Base editing in primary cynomolgus hepatocytes transfected with gRNA and ABE8.8 mRNA, NGS; assay type: cell-based; details: for Cyno hepatocytes- Editing % 156.25: 156.25 ng/RNA/mL; for Cyno hepatocytes- Editing % 312.5: 312.5 ng/RNA/mL; for Cyno hepatocytes- Editing % 625: 625 ng/RNA/mL; for Cyno hepatocytes- Editing % 1250: 1250 ng/RNA/mL; for Cyno hepatocytes- Editing % 2500: 2500 ng/RNA/mL; for Cyno hepatocytes- Editing % 5000: 5000 ng/RNA/mL; for editing activity in cynomolgus primary hepatocytes (in words): ABE8.8 mRNA co-transfection
Text: as §1

[4] = GA457 site OT29 GACATCCTGTCAAGGATCAG
[5] = GA457 site OT31 GCCATAAGCCAAAGAATGAC
[6] = GA459 On-target GCAACTTACCCAGAGGCAAA
[7] = GA460 On-target TATAGGAAAACCAGTGAGTC

Molecule	on-target site editing efficiency (in words) (TTR on-target site)	Human hepatocytes- Editing % 625, rep 1 (human TTR gene) [%]	Human hepatocytes- Editing % 625, rep 2 (human TTR gene) [%]	Human hepatocytes- Editing % 1250, rep 1 (human TTR gene) [%]	Human hepatocytes- Editing % 1250, rep 2 (human TTR gene) [%]	Human hepatocytes- Editing % 2500, rep 1 (human TTR gene) [%]	Human hepatocytes- Editing % 2500, rep 2 (human TTR gene) [%]	editing activity in human primary hepatocytes (in words) (human TTR gene)	Cyno hepatocytes- Editing % 156.25 [3] [%]	Cyno hepatocytes- Editing % 312.5 [3] [%]	Cyno hepatocytes- Editing % 625 [3] [%]	Cyno hepatocytes- Editing % 1250 [3] [%]	Cyno hepatocytes- Editing % 2500 [3] [%]	Cyno hepatocytes- Editing % 5000 [3] [%]	editing activity in cynomolgus primary hepatocytes (in words) [3]	off-target editing at candidate off-target sites (in words) ([2]; human primary hepatocytes)	other results
CC(=O)NC1O[C@H](CO)[C@H](O)[C@H](O)[C@H]1O (stereo partly drawn) [N-Acetyl-D-Galactosylamine]																	affinity for ASGP-R relative to D-Gal [1]: 50 fold
B1	high editing efficiency	17.24	15.39	26.49	24.86	33.96	31.31	high editing activity									% Editing-human primary hepatocytes Treated (TTR on-target site; GA457 On-target GCCATCCTGCCAAGAATGAG): 54.21%; % Editing-human primary hepatocytes Net (TTR on-target site; GA457 On-target GCCATCCTGCCAAGAATGAG, treated minus untreated): 54.1%; net editing at all off-target sites ([2]; 47 candidate off-target sites, human primary hepatocytes): less than 0.4%; % Editing-human primary hepatocytes Net ([2]; GA457 site OT3 GCCATACCTGCCATGAATGAG): 0.01%; % Editing-human primary hepatocytes Net [2, 4]: 0.05%; % Editing-human primary hepatocytes Treated [2, 4]: 0.21%; % Editing-human primary hepatocytes Net [2, 5]: 0.09%; % Editing-human primary hepatocytes Treated [2, 5]: 0.09%
B2																	percent base editing in primary human hepatocytes (TTR gene): greater than 40%
B3	high editing efficiency	21.81	22.31	32.82	32.38	40.42	39.43	high editing activity	0.07	7.45	13.16	19.46	29.8	37.53	high editing activity	little to no off-target editing	SUM Editing %-Human Primary Hepatocytes Treat rep 2 (TTR on-target site; GA461 On-target TACTCACCTCTGCATGCTCA): 58.9%
B4	high editing efficiency	3.79	3.89	5.46	6.15	8.5	8.69									little to no off-target editing	SUM Editing %-Human Primary Hepatocytes Treat rep 1 (TTR on-target site; [6]): 14.17%; SUM Editing %-Human Primary Hepatocytes Treat rep 2 (TTR on-target site; [6]): 14.29%
B5	high editing efficiency	23.77	22.27	38.33	35.8	47.61	47.79	high editing activity	1.62	11.22	18.44	31.71	38.25	40.16	high editing activity	little to no off-target editing	SUM Editing %-Human Primary Hepatocytes Treat rep 1 (TTR on-target site; [7]): 76.4%; SUM Editing %-Human Primary Hepatocytes Treat rep 2 (TTR on-target site; [7]): 74.3%
B6									6.06	10.65	16.07	22.74	27.25	35.91	high editing activity		

— US20250312491A1, “BASE EDITING OF TRANSTHYRETIN GENE” (Beam Therapeutics Inc., priority 2022, published 2025)
